This experiment has as its target trkB.
For “monoMPEG(6 kDa)-BDNF conjugate with site of attachment at the N-terminal alpha-amino group(s) (Example 1) (ligand)”, the Activ. in vitro (MTS tetrazolium uptake by PC12/pcDneo-trkB#18 cells) was 101%.
With “monoMPEG(20 kDa)-BDNF conjugate with site of attachment at the N-terminal alpha-amino group(s) (Example 2) (ligand)”, the Activ. in vitro (MTS tetrazolium uptake by PC12/pcDneo-trkB#18 cells) came out at 73%.
The same measure for “polyMPEG(6 kDa)-BDNF conjugates with MPEG aldehydes, six-fold molar excess (Example 4) (ligand)”: 25%; for r-metHuBDNF (ligand): 100%.

Values taken from patent publication US5770577.
